The results in this text go back to the nanobody polyreactivity screen of Harvey et al. (2022).

This series in a line: yeast display, Sf9 membrane polyspecificity reagent, FACS + sequencing; frameworks hold sequencing errors. In short, it runs like this: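 A synthetic nanobody library was expressed on Saccharomyces cerevisiae BJ5465 by galactose induction for 36–48 hours. The library was stained for 1 hour at 4 °C with 10% biotinylated, detergent-solubilized Sf9 membrane reagent and enriched with streptavidin microbeads before FACS. Low and high (top ~1%) gates were set on anti-HA fluorescence for expression and streptavidin fluorescence for reagent binding, and each polyreactivity label reflects the gate of origin.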
For “QVQLVESGGGLVQAGGSLRLSCAASGSTFRHYAMGWYRQAPGKERELVAAISYSGSRTYYADSVKGRFTISRDNAKNTVYLQMNSLKPEDTAVYYCNVNLQGRYSDKYDYWGQGTQVTVSS”, the “polyreactivity (PSR sort gate)” value is listed as “high polyreactivity”.

On to “QVQLVESGGGLVQAGGSLRLSCAASGSTFRINAMGWYRQAPGKERELVAAITRGGSTNYADSVKGRFTISRDNAKNTVYLQMNSLKPEDTAVYYCAAGLYSWSGYASYNSAYGYWGQGTQVTVSS”, for which the “polyreactivity (PSR sort gate)” value was “low polyreactivity”.

For “QVQLVESGGGLVQAGGSLRLSCAASGSTFRIYAMGWYRQAPGKERELVARISWNGGRTYYADSVKGRFTISRDNAKNTVYLQMNSLKPEDTAVYYCNARSQGWYYFPDNDYWGQGTQVTVSS”, the “polyreactivity (PSR sort gate)” value is “high polyreactivity”.

As to “QVQLVESGGGLVQAGGSLRLSCAASGSTFRKYAMGWYRQAPGKEREFVAAITWSTGTTYYADSVKGRFTISRDNAKNTVYLQMNSLKPEDTAVYYCAADSQPPHELYESIEHESWGQGTQVTVSS”, the “polyreactivity (PSR sort gate)” value is reported as “low polyreactivity”.

As to “QVQLVESGGGLVQAGGSLRLSCAASGSTFRKYGMGWYRQAPGKERELVARITSSTGTTYYADSVKGRFTISRDNAKNTVYLQMNSLKPEDTAVNYCNARVRYREWGLYYYWGQGTQVTVSS”, the “polyreactivity (PSR sort gate)” value was “high polyreactivity”.

Regarding “QVQLVESGGGLVQAGGSLRLSCAASGSTFRLNARGWYRQAPGKERELVASIRWSVGITYYADSVKGRFTISRDNAKNTVYLQMNSLKPEDTAVYYCATRDTTWRYYYWGQGTQVTVSS”, the “polyreactivity (PSR sort gate)” value is on record as “high polyreactivity”.

For the sequence “QVQLVESGGGLVQAGGSLRLSCAASGSTFRLYAMGWYRQAPGKERELVAAISSGGTTKYADSVKGRFTISRDNAKNTVYLQMNSLKPEDTAVYYCNRRARSYADDYWGQGTQVTVSS”, the “polyreactivity (PSR sort gate)” value is “high polyreactivity”.

Take “QVQLVESGGGLVQAGGSLRLSCAASGSTFRLYAMGWYRQAPGKERELVASITTGGSTYYADSVKGRFTISRDNAKNTVYLQMNSLKPEDTAVYYCAAEEYWEMDYWGQGTQVTVSS”: the “polyreactivity (PSR sort gate)” value was “low polyreactivity”.

For the sequence “QVQLVESGGGLVQAGGSLRLSCAASGSTFRNYAMGWYRQAPGKERELVAAITKRGGTTYYADSVKGRFTISRDNAKNTVYLQMNSLKPEDTAVYYCAARVKGQWNTYDYWGQVTQVTVSS”, the “polyreactivity (PSR sort gate)” value is recorded as “high polyreactivity”.

As for “QVQLVESGGGLVQAGGSLRLSCAASGSTFRPNAMGWYRQAPGKERELVAAITSGGSTYYADSVKGRFTISRDNAKNTVYLQMNSLKPEDTAVYYCNKDKFWSYPVQVNLDYWGQGTQVTVSS”, the “polyreactivity (PSR sort gate)” value is reported as “low polyreactivity”.

On to “QVQLVESGGGLVQAGGSLRLSCAASGSTFRPYAMGWDRQAPGKERELVAAITSTGGSTYYADSVKGRFTISRDNAKNTVYLQMNSLKPEDTAVYYCAAPLVRYAGPYDYWGQGTQVTVSS”, for which the “polyreactivity (PSR sort gate)” value is recorded as “low polyreactivity”.

For “QVQLVESGGGLVQAGGSLRLSCAASGSTFRPYVMGWSRQAPGKERELVAAISWRGGTTYYADSVKGRFTISRDNAKNTVYLQMNSQKPEDPAVYYCAARGDQGVPVARRYDYWGQGTQVTVSS”, the “polyreactivity (PSR sort gate)” value is on record as “high polyreactivity”.

For “QVQLVESGGGLVQAGGSLRLSCAASGSTFRPYVMGWYRQAPGKERELVAAISWRGGTTYYADSVKGRFTISRDNAKNTVYLQMNSLKPEDTAVYYCAARGDQGVPVARRYDYWGQGTQVTVSS”, the “polyreactivity (PSR sort gate)” value was “high polyreactivity”.

“QVQLVESGGGLVQAGGSLRLSCAASGSTFRQNAMGWYRQAPRKERELVATIRTSGGTTYYADSVKGRFTISRDTAKNTVYLQMNSLKPVDTAVYYCAAVSYLFLYQGYPIAYPMYYWGQGTQVTVSS”: the “polyreactivity (PSR sort gate)” value was “low polyreactivity”.

Consider “QVQLVESGGGLVQAGGSLRLSCAASGSTFRQYAMGWYRQAPGKERELVAAISSSGSTTYYADSVKGRFTISRDNAKNTVYLQMNSLKPEDTAVYYCAAEYTFHYDYWGQGTQVTVSS”, for which the “polyreactivity (PSR sort gate)” value is given as “low polyreactivity”.

In the case of “QVQLVESGGGLVQAGGSLRLSCAASGSTFRQYAMGWYRQAPGKERELVAGISYRGGRTYYADSVKGRFTISRDNAKNTVYLHMNSLKPEDTAVYYCNALRHYRDISVDGDDYWGQGTQVTVSS”, the “polyreactivity (PSR sort gate)” value was “high polyreactivity”.

With “QVQLVESGGGLVQAGGSLRLSCAASGSTFRRNAMGWYRQAPGKERELVAAIRYSGSSTYYADSVKGRFTISRGNAKNTVYLQMNSLKPEDTAVYYCATVRNNRYKYDYWGQGTQVTVSS”, the “polyreactivity (PSR sort gate)” value was “high polyreactivity”.

Regarding “QVQLVESGGGLVQAGGSLRLSCAASGSTFRRNAMGWYRQAPGKERELVAAISRSGDSTYYADSVKGRFTISRDYAKNTVYLQMNSLKPEDNAVYYCIAHQSRQVGYWGQGTQVTVSS”, the “polyreactivity (PSR sort gate)” value is “high polyreactivity”.

As for “QVQLVESGGGLVQAGGSLRLSCAASGSTFRRNAMGWYRQAPGKERELVAAISSSGGSTYYADSVKGRFTISRDNAKNTVFLQMNSLKPEDTAVYYCAAGYPTLRGYYYWGQGTQVTVSS”, the “polyreactivity (PSR sort gate)” value is recorded as “low polyreactivity”.

Consider “QVQLVESGGGLVQAGGSLRLSCAASGSTFRRNAMGWYRQPPGKERELVAAISGSGSTYYADSVKGRFTISRDHAKNTVYLQLNSLKPEDTAVYYCAKDVTDPTSRSDRSGDDYWGQGTQVTVSS”, for which the “polyreactivity (PSR sort gate)” value was “low polyreactivity”.

Regarding “QVQLVESGGGLVQAGGSLRLSCAASGSTFRRNAMGWYRQSPGKERELVAAISWRGGSTYYADSVKGRFTISRDYAKNTVYLQMNSLKPEDTAVYYCNTYHPYWGSGFDYWGQGTQVTVSS”, the “polyreactivity (PSR sort gate)” value is “low polyreactivity”.

Regarding “QVQLVESGGGLVQAGGSLRLSCAASGSTFRRNTMGWYTQAPGKERELVAGISSSGGSTYYADSVKGRFTISRDNAKNTVYLQMNSLNPEDTAVYYCDARFYVSYVGYNYWGHGTQVTVSS”, the “polyreactivity (PSR sort gate)” value is listed as “high polyreactivity”.

With “QVQLVESGGGLVQAGGSLRLSCAASGSTFRRYAMGWYRQAPGKEREFVAGITFSGVSTYYADSVKGRFTISRDNAKNTVYLQMNSLKPEDTAVYYCNRRPKYVDNDYWGQGTQVTVSS”, the “polyreactivity (PSR sort gate)” value was “high polyreactivity”.

As for “QVQLVESGGGLVQAGGSLRLSCAASGSTFRRYAMGWYRQAPGKERELVAAITGSGGRTYYADSVKGRFTISRDNAKNTVYLQMNSLKPEDTAVYYCAKDSYTRPRGYDYWGQGTQVTVSS”, the “polyreactivity (PSR sort gate)” value is listed as “high polyreactivity”.

In the case of “QVQLVESGGGLVQAGGSLRLSCAASGSTFRRYAMGWYRQAPGKERELVATISSGGRTNYADSVKGRFTISRDNAKNTVYLQMNSLKPEDTAVYYCAARPYYYERSAGYYWGQGTQVTVSS”, the “polyreactivity (PSR sort gate)” value was “high polyreactivity”.

For “QVQLVESGGGLVQAGGSLRLSCAASGSTFRSNAMGWYRQAPGKERELVAAISSRVGTTYYADSVKGRFTISRDNAKNTVYLQMNSLKPEDTAVYYCAAQGWRYYRTVVPMDYWGQGTQVTVSS”, the “polyreactivity (PSR sort gate)” value was “low polyreactivity”.

“QVQLVESGGGLVQAGGSLRLSCAASGSTFRSNAMGWYRQAPGKERELVASINWSGDSTYYADSVKGRFTISRDNAKNTVYLQMNSLKPEDTAVYYCNAVVDTTEYPYEYDYWGQGTQVTVSS”: the “polyreactivity (PSR sort gate)” value was “low polyreactivity”.

As to “QVQLVESGGGLVQAGGSLRLSCAASGSTFRSNVMGWYRQAPGKERELVAAITSSGGSTYYADSVKGRFTISRDNAKNTVYLQMNSLKPEDTAVYYCAVDYYYGFDWGQGTQVTVSS”, the “polyreactivity (PSR sort gate)” value is “low polyreactivity”.

In the case of “QVQLVESGGGLVQAGGSLRLSCAASGSTFRSYAMGWYRQAPGKERELVAAISVSGGSTYYADSVKGRFTISRDNAKNTVYLQMNSLKPEDTAVYYCAASYVPSYAPGRYYYWGQGTQVTVSS”, the “polyreactivity (PSR sort gate)” value is listed as “high polyreactivity”.

For the sequence “QVQLVESGGGLVQAGGSLRLSCAASGSTFRTNAMGWYRQAPGKERELVARIRYSVGSTYYADSVKGRFTISRDNAKNTVYLQMNSLKPEDTAVYYCAAENQRVGTFREHDSWGQGTQVTVSS”, the “polyreactivity (PSR sort gate)” value is “low polyreactivity”.

Take “QVQLVESGGGLVQAGGSLRLSCAASGSTFRTNVMGWYRQAPGKERELVAAITKRGSITYYADSVKGRFTISRDNAKNTVYFQMNSLKPEDTAVYYCAARKVAVGGYGYWGQGTQVTVSS”: the “polyreactivity (PSR sort gate)” value is “high polyreactivity”.

As to “QVQLVESGGGLVQAGGSLRLSCAASGSTFRTYAMGWYRQAPGKERELVADITWRGGSTYYADSVKGRFTISRDNAKNTVYLQMNSLKPEDTAGYYCATDRGPEVVLYDYWGQGTQVTVSS”, the “polyreactivity (PSR sort gate)” value was “low polyreactivity”.

As to “QVQLVESGGGLVQAGGSLRLSCAASGSTFRTYAMGWYRQAPGKVRELVAAITNGGSTYADSVKGRFTISRDNAKNTVYLQMNSLKPEDTAVYYCNADFGFGYVSLLYEYWGQGTQVTVSS”, the “polyreactivity (PSR sort gate)” value is “low polyreactivity”.

In the case of “QVQLVESGGGLVQAGGSLRLSCAASGSTFRTYAMGWYRQAPGQERELVAASDSSGGNTYYADSVKGRCTISRDPAKNTVYLQMNSLKPEDTAVYYCARESVTYFWYYTPEVDYWGQGTQVTVSS”, the “polyreactivity (PSR sort gate)” value is “low polyreactivity”.

For “QVQLVESGGGLVQAGGSLRLSCAASGSTFRTYTMGWYRQAPGKERELVAAISSIGSSTFYADSVKGRFTISRDNAKNTVYLQMISLKPEDTAVYYCAAVRRGGGVIYDYWGQGTQVTVSS”, the “polyreactivity (PSR sort gate)” value is reported as “high polyreactivity”.

Turning to “QVQLVESGGGLVQAGGSLRLSCAASGSTFRTYVMGWYRQAPGKERELVAAITRSGVSTSYADSVKGRFTISRDNAKNTVYLQMNSLKPEDTAVYYCAATKYDDGYSWTHYYYWGQGTQVTVSS”, the “polyreactivity (PSR sort gate)” value is reported as “high polyreactivity”.

Consider “QVQLVESGGGLVQAGGSLRLSCAASGSTFRVNAMGWYRQAPGKERELVAAISSSGGITYYADSVKGRFTISRDNAKNTVYLQMNSLKPEDTAVYYCAKGTVIHVLYDYWGQGTQVTVSS”, for which the “polyreactivity (PSR sort gate)” value is “low polyreactivity”.

In the case of “QVQLVESGGGLVQAGGSLRLSCAASGSTFRWNAMGWYRQAPGKETELVAAITRSVGSTYYADSVKGRFTISRDNAKNTVYLQMNSLKPEDTAVYYCAADFYYYGFDYWGQGTQVTVSS”, the “polyreactivity (PSR sort gate)” value was “low polyreactivity”.

Take “QVQLVESGGGLVQAGGSLRLSCAASGSTFRWYDMGGYRQAPGKEREFVAAITSSGGSTYYADSVKGRFTISRDNAKNTVYLQMNSLKPEYNAVYYCNRRYQPYSYDYWGQGTQVTVSS”: the “polyreactivity (PSR sort gate)” value is given as “high polyreactivity”.

“QVQLVESGGGLVQAGGSLRLSCAASGSTFRWYTMGWYRQAPGKERELVAAINQSGSRTYYADSVKGRFTISRDNAKNTVYLQMNSLKPEDTAGYYCNAKSYKSPHTYYYWGQGTQVTVSS”: the “polyreactivity (PSR sort gate)” value is “high polyreactivity”.

On to “QVQLVESGGGLVQAGGSLRLSCAASGSTFRYNAMGWYRQAPGKERELVAAINRGGGTDYADSVKGRFTISRDNAKNTVYLQMNSLKPEDTAVYYCAKQFVSYNRWLAYGYWGQGTQVTVSS”, for which the “polyreactivity (PSR sort gate)” value is “low polyreactivity”.
